Results: IntAct's records for PubMed 17704763

B1: Adagio protein 1 (Arabidopsis thaliana (Mouse-ear cress)), Q94BT6 (parent)
chain: MEWDSGSDLSADDASSLADDEEGGLFPGGGPIPYPVGNLLHTAPCGFVVTDAVEPDQPIIYVNTVFEMVTGYRAEEVLGGNCRFLQCRGPFAKRRHPLVDSMVVSEIRKCIDEGIEFQGELLNFRKDGSPLMNRLRLTPIYGDDDTITHIIGIQFFIETDIDLGPVLGSSTKEKSIDGIYSALAAGERNVSRGMCGLFQLSDEVVSMKILSRLTPRDVASVSSVCRRLYVLTKNEDLWRRVCQNAWGSETTRVLETVPGAKRLGWGRLARELTTLEAAAWRKLSVGGSVEPSRCNFSACAVGNRVVLFGGEGVNMQPMNDTFVLDLNSDYPEWQHVKVSSPPPGRWGHTLTCVNGSNLVVFGGCGQQGLLNDVFVLNLDAKPPTWREISGLAPPLPRSWHSSCTLDGTKLIVSGGCADSGVLLSDTFLLDLSIEKPVWREIPAAWTPPSRLGHTLSVYGGRKILMFGGLAKSGPLKFRSSDVFTMDLSEEEPCWRCVTGSGMPGAGNPGGVAPPPRLDHVAVNLPGGRILIFGGSVAGLHSASQLYLLDPTEDKPTWRILNIPGRPPRFAWGHGTCVVGGTRAIVLGGQTGEEWMLSELHELSLASYLT
partner: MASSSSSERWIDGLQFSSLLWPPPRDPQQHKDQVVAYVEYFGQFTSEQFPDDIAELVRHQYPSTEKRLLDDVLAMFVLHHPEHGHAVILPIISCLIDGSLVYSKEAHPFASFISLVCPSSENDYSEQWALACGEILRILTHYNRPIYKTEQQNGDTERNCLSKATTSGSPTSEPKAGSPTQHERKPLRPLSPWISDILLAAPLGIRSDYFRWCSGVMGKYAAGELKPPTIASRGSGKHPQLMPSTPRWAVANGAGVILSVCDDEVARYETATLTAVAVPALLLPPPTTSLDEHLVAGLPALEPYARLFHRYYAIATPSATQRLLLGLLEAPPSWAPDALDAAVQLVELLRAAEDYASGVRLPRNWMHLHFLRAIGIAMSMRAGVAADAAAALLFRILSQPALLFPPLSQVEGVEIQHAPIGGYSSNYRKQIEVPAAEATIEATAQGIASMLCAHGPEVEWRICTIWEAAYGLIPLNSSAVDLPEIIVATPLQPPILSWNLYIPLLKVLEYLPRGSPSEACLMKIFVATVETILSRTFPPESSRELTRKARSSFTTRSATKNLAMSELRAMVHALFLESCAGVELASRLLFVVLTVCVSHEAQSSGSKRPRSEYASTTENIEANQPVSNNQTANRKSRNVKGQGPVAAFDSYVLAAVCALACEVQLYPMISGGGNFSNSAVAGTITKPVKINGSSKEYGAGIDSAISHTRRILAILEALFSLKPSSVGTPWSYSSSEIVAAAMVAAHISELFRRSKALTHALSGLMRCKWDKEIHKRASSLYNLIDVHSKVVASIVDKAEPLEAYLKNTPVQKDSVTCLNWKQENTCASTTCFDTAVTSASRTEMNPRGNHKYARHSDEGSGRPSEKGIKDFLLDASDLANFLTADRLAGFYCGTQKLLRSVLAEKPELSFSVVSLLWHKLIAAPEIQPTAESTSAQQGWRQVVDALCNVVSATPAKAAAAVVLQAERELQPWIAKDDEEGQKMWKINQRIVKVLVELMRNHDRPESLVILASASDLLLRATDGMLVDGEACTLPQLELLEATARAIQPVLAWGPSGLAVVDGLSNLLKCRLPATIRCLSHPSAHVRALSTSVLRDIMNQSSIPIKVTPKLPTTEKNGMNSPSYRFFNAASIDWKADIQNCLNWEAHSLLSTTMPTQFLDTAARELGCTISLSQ

Variants of: B1
Conditions: with gigan_arath GI

Row | Variant | effect of a mutation on the interaction
1 | G119D | decreasing interaction strength
2 | G46E | disrupting interaction strength
3 | C82A | decreasing interaction strength
